Drawing on patent US20070060521A1, this text covers Frequency (out of 100 clones) for seven molecules.

GST fusion protein containing the isolated SH2 domain of STAT3, sequence (P40763 580-670): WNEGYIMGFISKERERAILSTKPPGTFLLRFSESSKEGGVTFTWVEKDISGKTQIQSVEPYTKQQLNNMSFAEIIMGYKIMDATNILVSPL
GST-Stat3 fusion protein (full-length STAT3 fused to bacterial glutathione S-transferase), sequence (P40763 whole entry, the tested form may be a part): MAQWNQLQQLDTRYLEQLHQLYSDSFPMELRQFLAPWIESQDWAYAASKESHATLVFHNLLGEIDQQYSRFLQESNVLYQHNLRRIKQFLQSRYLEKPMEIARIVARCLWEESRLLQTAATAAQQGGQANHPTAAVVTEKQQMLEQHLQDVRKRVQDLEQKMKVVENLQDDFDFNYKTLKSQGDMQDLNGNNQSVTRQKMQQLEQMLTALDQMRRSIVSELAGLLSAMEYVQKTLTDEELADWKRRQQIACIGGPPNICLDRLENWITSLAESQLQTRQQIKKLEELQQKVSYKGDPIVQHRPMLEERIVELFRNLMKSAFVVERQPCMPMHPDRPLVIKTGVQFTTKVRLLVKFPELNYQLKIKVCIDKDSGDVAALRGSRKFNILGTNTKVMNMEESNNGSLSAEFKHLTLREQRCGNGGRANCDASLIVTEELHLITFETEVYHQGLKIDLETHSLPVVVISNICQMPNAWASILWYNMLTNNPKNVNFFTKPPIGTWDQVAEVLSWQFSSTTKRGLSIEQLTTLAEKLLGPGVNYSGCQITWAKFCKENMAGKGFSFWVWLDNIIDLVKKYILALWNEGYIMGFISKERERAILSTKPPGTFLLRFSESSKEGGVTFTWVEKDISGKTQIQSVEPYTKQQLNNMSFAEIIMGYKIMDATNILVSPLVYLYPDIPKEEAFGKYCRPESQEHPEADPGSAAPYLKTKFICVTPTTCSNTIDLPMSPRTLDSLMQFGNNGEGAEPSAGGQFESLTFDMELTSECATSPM

One assay concerns the target GST-Stat3 fusion protein (full-length STAT3 fused to bacterial glutathione S-transferase). Briefly: phage display panning on GST-Stat3, clones sequenced after selection.
FSYPLTRAPLNMGGGS (peptide, not shown: large carriers) [… (SEQ ID NO:16)]: the Frequency (out of 100 clones) is 8%. Take SHPWNAQRELSVGGGS (peptide, not shown: large carriers) [… (SEQ ID NO:14)]: the Frequency (out of 100 clones) was found to be 9%. Turning to QDVHLTQQSRYTGGGS (peptide, not shown: large carriers) [… (SEQ ID NO:13)], the Frequency (out of 100 clones) is 13%. The same measure, in the same setting: next, YPAPQPLVTKTSGGGS (peptide, not shown: large carriers) [… (SEQ ID NO:15)]: 8%.

A further assay concerns the target GST fusion protein containing the isolated SH2 domain of STAT3. Nature of the assay: phage display panning on the isolated SH2 domain of STAT3, clones sequenced after selection.
HAIYPRN (peptide, not shown: small tags and cut ends; large carriers) [HAIYPRN (SEQ ID NO:17)] registered a Frequency (out of 100 clones) of 16%. On the same count and under the same terms, next, IQSPHFF (peptide, not shown: small tags and cut ends; large carriers) [IQSPHFF (SEQ ID NO:19)]: 6%; ASTLPKA (peptide, not shown: small tags and cut ends; large carriers) [ASTLPKA (SEQ ID NO:18)]: 7%.
